According to the supplement of paper PMC5998384:

What was measured:
HeLa Kyoto [1] = test: solubility change mitosis vs G1/S (difference of NP-40 vs SDS log2 ratios) (log2 ratio difference); higher = more soluble in mitosis
HeLa Kyoto [2] = test: melting temperature (median over replicates), in situ; higher = more thermally stable
HeLa Kyoto [3] = test: solubility in G1/S (NP-40 vs SDS abundance) (log2 ratio); higher = more soluble; conditions: cell cycle stage: G1/S
HeLa Kyoto [4] = test: thermal stability score vs G1/S (z-score of summed log2 fold changes over temperatures); higher = more thermally stable than in G1/S
[5] = cell cycle stage: early G1 (4.5 h after nocodazole release)
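For melting temperature (median over replicates), in situ in this document: HeLa Kyoto cells synchronized by double thymidine or nocodazole block, proteins quantified by TMT10plex mass spectrometry, three independent biological replicates.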
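For solubility change mitosis vs G1/S (difference of NP-40 vs SDS log2 ratios) in this document: synchronized HeLa Kyoto cells (double thymidine block for G1/S, nocodazole release for mitosis), protein amounts in NP-40 versus SDS lysates quantified by mass spectrometry, three biological replicates.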
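For solubility in G1/S (NP-40 vs SDS abundance) in this document: HeLa Kyoto cells arrested at G1/S by double thymidine block, proteins quantified by TMT10plex mass spectrometry in mild NP-40 versus SDS extracts, three biological replicates.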
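For thermal stability score vs G1/S (z-score of summed log2 fold changes over temperatures) in this document: synchronized HeLa Kyoto cells, proteins quantified by TMT10plex mass spectrometry, three biological replicates, mitosis taken 0.5 h after nocodazole release, G1/S directly after double thymidine block.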

| Sequence | solubility change mitosis (log2) (HeLa Kyoto [1]) | melting temperature (HeLa Kyoto [2]; cell cycle stage: G1/S) | melting temperature (HeLa Kyoto [2]; cell cycle stage: mitosis) | solubility in G1/S (log2) (HeLa Kyoto [3]) | thermal stability score (HeLa Kyoto [4]; [5]) | thermal stability score (HeLa Kyoto [4]; cell cycle stage: mitosis) |
| --- | --- | --- | --- | --- | --- | --- |
| MNHLNVLAKALYDNVAESPDELSFRKGDIMTVLEQDTQGLDGWWLCSLHGRQGIVPGNRLKILVGMYDKKPAGPGPGPPATPAQPQPGLHAPAPPASQYTPMLPNTYQPQPDSVYLVPTPSKAQQGLYQVPGPSPQFQSPPAKQTSTFSKQTPHHPFPSPATDLYQVPPGPGGPAQDIYQVPPSAGMGHDIYQVPPSMDTRSWEGTKPPAKVVVPTRVGQGYVYEAAQPEQDEYDIPRHLLAPGPQDIYDVPPVRGLLPSQYGQEVYDTPPMAVKGPNGRDPLLEVYDVPPSVEKGLPPSNHHAVYDVPPSVSKDVPDGPLLREETYDVPPAFAKAKPFDPARTPLVLAAPPPDSPPAEDVYDVPPPAPDLYDVPPGLRRPGPGTLYDVPRERVLPPEVADGGVVDSGVYAVPPPAEREAPAEGKRLSASSTGSTRSSQSASSLEVAGPGREPLELEVAVEALARLQQGVSATVAHLLDLAGSAGATGSWRSPSEPQEPLVQDLQAAVAAVQSAVHELLEFARSAVGNAAHTSDRALHAKLSRQLQKMEDVHQTLVAHGQALDAGRGGSGATLEDLDRLVACSRAVPEDAKQLASFLHGNASLLFRRTKATAPGPEGGGTLHPNPTDKTSSIQSRPLPSPPKFTSQDSPDGQYENSEGGWMEDYDYVHLQGKEEFEKTQKELLEKGSITRQGKSQLELQQLKQFERLEQEVSRPIDHDLANWTPAQPLAPGRTGGLGPSDRQLLLFYLEQCEANLTTLTNAVDAFFTAVATNQPPKIFVAHSKFVILSAHKLVFIGDTLSRQAKAADVRSQVTHYSNLLCDLLRGIVATTKAAALQYPSPSAAQDMVERVKELGHSTQQFRRVLGQLAAA [BCAR1] | 0.0584 | 49.1 °C | 49.4 °C | 0.471 | 0.46 | 2.67 |
| MNIDDKLEGLFLKCGGIDEMQSSRTMVVMGGVSGQSTVSGELQDSVLQDRSMPHQEILAADEVLQESEMRQQDMISHDELMVHEETVKNDEEQMETHERLPQGLQYALNVPISVKQEITFTDVSEQLMRDKKQIREPVDLQKKKKRKQRSPAKILTINEDGSLGLKTPKSHVCEHCNAAFRTNYHLQRHVFIHTGEKPFQCSQCDMRFIQKYLLQRHEKIHTGEKPFRCDECGMRFIQKYHMERHKRTHSGEKPYQCEYCLQYFSRTDRVLKHKRMCHENHDKKLNRCAIKGGLLTSEEDSGFSTSPKDNSLPKKKRQKTEKKSSGMDKESALDKSDLKKDKNDYLPLYSSSTKVKDEYMVAEYAVEMPHSSVGGSHLEDASGEIHPPKLVLKKINSKRSLKQPLEQNQTISPLSTYEESKVSKYAFELVDKQALLDSEGNADIDQVDNLQEGPSKPVHSSTNYDDAMQFLKKKRYLQAASNNSREYALNVGTIASQPSVTQAAVASVIDESTTASILESQALNVEIKSNHDKNVIPDEVLQTLLDHYSHKANGQHEISFSVADTEVTSSISINSSEVPEVTPSENVGSSSQASSSDKANMLQEYSKFLQQALDRTSQNDAYLNSPSLNFVTDNQTLPNQPAFSSIDKQVYATMPINSFRSGMNSPLRTTPDKSHFGLIVGDSQHSFPFSGDETNHASATSTQDFLDQVTSQKKAEAQPVHQAYQMSSFEQPFRAPYHGSRAGIATQFSTANGQVNLRGPGTSAEFSEFPLVNVNDNRAGMTSSPDATTGQTFG [ZNF148] | 0.123 | 51.6 °C | 51.1 °C | -0.236 | 1.13 | -1.33 |
| MNIMDFNVKKLAADAGTFLSRAVQFTEEKLGQAEKTELDAHLENLLSKAECTKIWTEKIMKQTEVLLQPNPNARIEEFVYEKLDRKAPSRINNPELLGQYMIDAGTEFGPGTAYGNALIKCGETQKRIGTADRELIQTSALNFLTPLRNFIEGDYKTIAKERKLLQNKRLDLDAAKTRLKKAKAAETRNSSEQELRITQSEFDRQAEITRLLLEGISSTHAHHLRCLNDFVEAQMTYYAQCYQYMLDLQKQLGSFPSNYLSNNNQTSVTPVPSVLPNAIGSSAMASTSGLVITSPSNLSDLKECSGSRKARVLYDYDAANSTELSLLADEVITVFSVVGMDSDWLMGERGNQKGKVPITYLELLN [SH3GLB1] | 0.00172 | 48.1 °C | 48.7 °C | 0.531 | 1.13 | 2.44 |
| MNKHQKPVLTGQRFKTRKRDEKEKFEPTVFRDTLVQGLNEAGDDLEAVAKFLDSTGSRLDYRRYADTLFDILVAGSMLAPGGTRIDDGDKTKMTNHCVFSANEDHETIRNYAQVFNKLIRRYKYLEKAFEDEMKKLLLFLKAFSETEQTKLAMLSGILLGNGTLPATILTSLFTDSLVKEGIAASFAVKLFKAWMAEKDANSVTSSLRKANLDKRLLELFPVNRQSVDHFAKYFTDAGLKELSDFLRVQQSLGTRKELQKELQERLSQECPIKEVVLYVKEEMKRNDLPETAVIGLLWTCIMNAVEWNKKEELVAEQALKHLKQYAPLLAVFSSQGQSELILLQKVQEYCYDNIHFMKAFQKIVVLFYKADVLSEEAILKWYKEAHVAKGKSVFLDQMKKFVEWLQNAEEESESEGEEN [BZW2] | -0.11 | 51.3 °C | 50.1 °C | 0.446 | 2.74 | 3.19 |
| MNKLYIGNLSENAAPSDLESIFKDAKIPVSGPFLVKTGYAFVDCPDESWALKAIEALSGKIELHGKPIEVEHSVPKRQRIRKLQIRNIPPHLQWEVLDSLLVQYGVVESCEQVNTDSETAVVNVTYSSKDQARQALDKLNGFQLENFTLKVAYIPDEMAAQQNPLQQPRGRRGLGQRGSSRQGSPGSVSKQKPCDLPLRLLVPTQFVGAIIGKEGATIRNITKQTQSKIDVHRKENAGAAEKSITILSTPEGTSAACKSILEIMHKEAQDIKFTEEIPLKILAHNNFVGRLIGKEGRNLKKIEQDTDTKITISPLQELTLYNPERTITVKGNVETCAKAEEEIMKKIRESYENDIASMNLQAHLIPGLNLNALGLFPPTSGMPPPTSGPPSAMTPPYPQFEQSETETVHLFIPALSVGAIIGKQGQHIKQLSRFAGASIKIAPAEAPDAKVRMVIITGPPEAQFKAQGRIYGKIKEENFVSPKEEVKLEAHIRVPSFAAGRVIGKGGKTVNELQNLSSAEVVVPRDQTPDENDQVVVKITGHFYACQVAQRKIQEILTQVKQHQQQKALQSGPPQSRRK [IGF2BP3] | 0.0855 | 46.9 °C | 47.6 °C | 0.241 | 0.549 | 0.841 |
| MNKPITPSTYVRCLNVGLIRKLSDFIDPQEGWKKLAVAIKKPSGDDRYNQFHIRRFEALLQTGKSPTSELLFDWGTTNCTVGDLVDLLIQNEFFAPASLLLPDAVPKTANTLPSKEAITVQQKQMPFCDKDRTLMTPVQNLEQSYMPPDSSSPENKSLEVSDTRFHSFSFYELKNVTNNFDERPISVGGNKMGEGGFGVVYKGYVNNTTVAVKKLAAMVDITTEELKQQFDQEIKVMAKCQHENLVELLGFSSDGDDLCLVYVYMPNGSLLDRLSCLDGTPPLSWHMRCKIAQGAANGINFLHENHHIHRDIKSANILLDEAFTAKISDFGLARASEKFAQTVMTSRIVGTTAYMAPEALRGEITPKSDIYSFGVVLLEIITGLPAVDEHREPQLLLDIKEEIEDEEKTIEDYIDKKMNDADSTSVEAMYSVASQCLHEKKNKRPDIKKVQQLLQEMTAS [IRAK4] | -0.193 | 50.6 °C | 49.9 °C | 0.372 | 0.383 | 1.05 |
| MNLEKLSKPELLTLFSILEGELEARDLVIEALKAQHRDTFIEERYGKYNISDPLMALQRDFETLKEKNDGEKQPVCTNPLSILKVVMKQCKNMQERMLSQLAAAESRHRKVILDLEEERQRHAQDTAEGDDVTYMLEKERERLTQQLEFEKSQVKKFEKEQKKLSSQLEEERSRHKQLSSMLVLECKKATNKAAEEGQKAGELSLKLEKEKSRVSKLEEELAAERKRGLQTEAQVEKQLSEFDIEREQLRAKLNREENRTKTLKEEMESLKKIVKDLEASHQHSSPNEQLKKPVTVSKGTATEPLMLMSVFCQTESFPAERTHGSNIAKMTNTGLPGPATPAYSYAKTNGHCDPEIQTTRELTAGNNVENQVPPREKSVALAQEKPVENGGCPVGIETPVPMPSPLSSSGSSLSPSSTASSSLTSSPCSSPVLTKRLLGSSASSPGYQSSYQVGINQRFHAARHKFQSQADQDQQASGLQSPPSRDLSPTLIDNSAAKQLARNTVTQVLSRFTSQQGPIKPVSPNSSPFGTDYRNLANTANPRGDTSHSPTPGKVSSPLSPLSPGIKSPTIPRAERGNPPPIPPKKPGLTPSPSATTPLTKTHSQAASLTTAEDLASSCSSNTVVANGKDVELLLPTSS [CTTNBP2NL] | -0.363 | 49.9 °C | 50.3 °C | 0.435 | -2.02 | -1.85 |
| MNPRQGYSLSGYYTHPFQGYEHRQLRYQQPGPGSSPSSFLLKQIEFLKGQLPEAPVIGKQTPSLPPSLPGLRPRFPVLLASSTRGRQVDIRGVPRGVHLRSQGLQRGFQHPSPRGRSLPQRGVDCLSSHFQELSIYQDQEQRILKFLEELGEGKATTAHDLSGKLGTPKKEINRVLYSLAKKGKLQKEAGTPPLWKIAVSTQAWNQHSGVVRPDGHSQGAPNSDPSLEPEDRNSTSVSEDLLEPFIAVSAQAWNQHSGVVRPDSHSQGSPNSDPGLEPEDSNSTSALEDPLEFLDMAEIKEKICDYLFNVSDSSALNLAKNIGLTKARDINAVLIDMERQGDVYRQGTTPPIWHLTDKKRERMQIKRNTNSVPETAPAAIPETKRNAEFLTCNIPTSNASNNMVTTEKVENGQEPVIKLENRQEARPEPARLKPPVHYNGPSKAGYVDFENGQWATDDIPDDLNSIRAAPGEFRAIMEMPSFYSHGLPRCSPYKKLTECQLKNPISGLLEYAQFASQTCEFNMIEQSGPPHEPRFKFQVVINGREFPPAEAGSKKVAKQDAAMKAMTILLEEAKAKDSGKSEESSHYSTEKESEKTAESQTPTPSATSFFSGKSPVTTLLECMHKLGNSCEFRLLSKEGPAHEPKFQYCVAVGAQTFPSVSAPSKKVAKQMAAEEAMKALHGEATNSMASDNQPEGMISESLDNLESMMPNKVRKIGELVRYLNTNPVGGLLEYARSHGFAAEFKLVDQSGPPHEPKFVYQAKVGGRWFPAVCAHSKKQGKQEAADAALRVLIGENEKAERMGFTEVTPVTGASLRRTMLLLSRSPEAQPKTLPLTGSTFHDQIAMLSHRCFNTLTNSFQPSLLGRKILAAIIMKKDSEDMGVVVSLGTGNRCVKGDSLSLKGETVNDCHAEIISRRGFIRFLYSELMKYNSQTAKDSIFEPAKGGEKLQIKKTVSFHLYISTAPCGDGALFDKSCSDRAMESTESRHYPVFENPKQGKLRTKVENGEGTIPVESSDIVPTWDGIRLGERLRTMSCSDKILRWNVLGLQGALLTHFLQPIYLKSVTLGYLFSQGHLTRAICCRVTRDGSAFEDGLRHPFIVNHPKVGRVSIYDSKRQSGKTKETSVNWCLADGYDLEILDGTRGTVDGPRNELSRVSKKNIFLLFKKLCSFRYRRDLLRLSYGEAKKAARDYETAKNYFKKGLKDMGYGNWISKPQEEKNFYLCPV [ADAR] | 0.346 | 47.9 °C | 49 °C | -0.466 | 2.76 | 5.55 |
| MNQEKLAKLQAQVRIGGKGTARRKKKVVHRTATADDKKLQSSLKKLAVNNIAGIEEVNMIKDDGTVIHFNNPKVQASLSANTFAITGHAEAKPITEMLPGILSQLGADSLTSLRKLAEQFPRQVLDSKAPKPEDIDEEDDDVPDLVENFDEASKNEAN [BTF3L4] | 0.243 | 56.3 °C | 54.6 °C | 0.114 | -0.215 | -1.23 |
